Tests used:
[1] = tested on: model huntingtin polypeptide (HD-25Q-GFP, pHD-104Q-GFP, HD-Q104-myc, GFP-HD-Q104); test: Intrabody retargeting of model huntingtin polypeptide in co-transfected COS-7 cells (immunofluorescence); assay type: cell-based; conditions: co-transfected mammalian cells
Description: (§1) COS 7 cells were grown on cover glass in 6-well plates (10^5 cells/well) and co-transfected at a ratio of 3:1 (sFv to target) with plasmids containing either N-HD-C4 sFv or a negative control sFv (containing an HA tag and SV40 nuclear localization sequence (NLS)) and plasmids containing GFP-targeted fusion proteins using 5 μl SuperFect transfection reagent (QIAGEN). At 24 hours post-transfection, cells were prepared for immunofluorescence as follows: cells were fixed with 4% paraformaldehyde and permeabilized with 0.2% triton-X100. To prevent non-specific binding of secondary antibodies, cells were blocked with 10% normal goat serum in 3% BSA.
The assay is designed such that both the target antigen, i.e., the model huntingtin polypeptide, and the intrabody can be visualized. In particular, the huntingtin polypeptide is visualized by detecting fluorescence emitted by the GFP domain of the huntingtin-GFP fusion polypeptide and the intrabodies tested are visualized using a rhodamine-conjugated antibody that can specifically bind to the intrabody.
The model HD target polypeptide was fused to c-myc (EQKLISEEDL (SEQ ID NO: 45)) epitope tag (HD-Q104-myc). The intrabodies sequences were fused to a HA tag and a SV40 nuclear localization signal (sFv-HA-NLS), so that bound antigens should be retargeted to the cell nuclei. At 48 hours post-transfection, cells were fixed and permeabilized. The HD-Q104-myc proteins were detectable using anti-myc epitope antibodies (i.e., MAb 9E10 IgG), followed by FITC-labeled goat anti-mouse IgG. The sFv-HA-NLS intrabodies were detected by polyclonal rabbit anti-HA IgG followed by rhodamine-conjugated goat anti-rabbit IgG antibodies.
(§2) FIGS. 13A-F show stably transfected COS-7 cells expressing α-Nt-HD-C4 sFv-HA-NLS which were further transfected with plasmids encoding either the model altered huntingtin polypeptide with 104 glutamine repeats (FIGS. 13B, D, F) or the model altered DRPLA polypeptide with 81 glutamine repeats (FIGS. 13A, C, E). Both model altered polypeptides were fused to GFP (GFP-HD-Q104 and GFP-DRPLA-Q81, respectively).

[2] = tested on: DRPLA polypeptide (GFP-DRPLA-35Q, GFP-DRPLA-Q81); test: Intrabody retargeting specificity in COS-7 cells with DRPLA polypeptide (immunofluorescence); assay type: cell-based; conditions: COS-7 co-transfection
Description: as §1
The model DRPLA target polypeptide was fused to a GFP domain to track the expression and intracellular localization of the target polypeptide in the transfected cells. In addition, two different intrabodies, one specific to huntingtin, and a second intrabody specific to an unrelated polypeptide, were independently cotransfected with the DRPLA target polypeptide.
as §2, with “Both model altered polypeptides were fused to GFP (GFP-HD-Q104 and GFP-DRPLA-Q81, respectively).” left out

[3] = target: T1, biotinylated HD-peptide (HD peptide (1-17), N-terminal huntingtin) (Homo sapiens, UniProt P42858); test: Kinetic binding analysis by surface plasmon resonance (BIAcore 2000); conditions: corresponding to the Kd
T1 construct: host or cells: chemical peptide synthesis
Description: A range of concentration (60 to 100 nM) of anti-huntingtin intrabody C4 sFv was used to measure the association rate (kon) on 50 RU of biotinylated-HD peptide bound to a streptavidin sensor chip.
The Kd of purified scFv clone C4 was determined by using surface plasmon resonance in a BIAcore 2000 (Biacore AG, Uppsala, Sweden). In a BIAcore flow cell, approximately 50 resonance units (RU) of biotinylated HD-peptide (250 nM in 1M NaCl and 50 mM NaOH) was coupled to a streptavidin sensor chip, pre-conditioned with three consecutive 1-minute injections of 1 M NaCl in 50 mM NaOH. […] Association was measured under a continuous flow of 5 μl/min with a concentration range from 60 to 100 nM, The kon was determined from a plot of In (dR/dt)/t versus concentration, where R is response and t is time (Karlsson et al., J. Immunol. Methods 145: 229-240 (1991)). The koff was determined from the dissociation part of the sensorgram at the highest concentration of intrabody analyzed by using a flow rate of 20 μl/min. The Kd was calculated as koff/kon.
To characterize the precise binding properties of the intrabody of the invention, further qualitative and quantitative studies of sFv binding to immobilized antigen were conducted in vitro. […] The kinetics of association and dissociation were determined for the C4 sFv antibody in the BIAcore 2000 (FIG. 11B).

Sequence of model huntingtin polypeptide (HD-25Q-GFP, pHD-104Q-GFP, HD-Q104-myc, GFP-HD-Q104) (as listed by the source): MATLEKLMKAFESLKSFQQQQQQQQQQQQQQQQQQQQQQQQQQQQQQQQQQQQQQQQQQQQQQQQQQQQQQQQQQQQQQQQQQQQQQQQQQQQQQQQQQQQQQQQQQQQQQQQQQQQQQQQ
Sequence of DRPLA polypeptide (GFP-DRPLA-35Q, GFP-DRPLA-Q81) (P54259 with tags, fused parts or gaps DUP487-502): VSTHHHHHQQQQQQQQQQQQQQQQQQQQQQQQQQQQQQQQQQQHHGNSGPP

B1: C4 sFv: human single-chain Fv intrabody from phage display, specific for the 17 N-terminal residues of huntingtin; SEQ ID NO: 6 (protein)
scFv: QVQLQESGGGLVQPGGSLRLSCAASGFTFSSYSMSWVRQAPGKGLEWVAVISYDGSNKYYADSVKGRFTISRDNSKNTLYLQMNSLRAEDTAVYYCARDRYFDLWGRGTLVTVSSGGGGSGGGGSGGGGSQSALTQPASVSGSPGQSITISCTGTSSDIGAYNYVSWYQQYPGKAPKLLIYDVSNRPSGISNRFSGSKSGDTASLTISGLQAEDEADYYCSSFANSGPLFGGGTKVTVL
In the case of B1, the “retargeting of altered huntingtin polypeptide with 104 glutamines (pHD-104Q-GFP)” value [1] is reported as “can specifically retarget the cellular distribution of the model altered huntingtin polypeptide”, the “cellular distribution of GFP-DRPLA-35Q” value [2] is reported as “no change in the cellular distribution of DRPLA polypeptide” and the “binding affinity (Ka)” value [3] is reported as 1.3e+08 M⁻¹.

From patent US20050255113A1, “Methods and compositions for inhibiting polypeptide accumulation associated with neurological disorders” (New York State Department of Health and Abgenix, Inc., priority 1999, published 2005)
